Results: paper PMC4457833, “Effective Optimization of Antibody Affinity by Phage Display Integrated with High-Throughput DNA Synthesis and Sequencing Technologies” (PLoS ONE, 2015)

Target: T1, biotinylated recombinant dimeric ErbB2 ECD-Fc fusion protein (Homo sapiens, UniProt P04626, biotin (EZ-Link NHS-PEG4-Biotin labeling kit))
T1 construct: ErbB2, extracellular domain (ECD); Cloned in the mammalian expression vector pSectag 2A; also called Bio-ECD; source: Expi293, transiently expressed, purified on Protein A, then biotinylated
Test: SPR; Biacore 3000, 25°C; Bio-ECD (1 μg/ml in PBS) immobilised on SA sensor chip at about 300 RU; antibodies 10 μg/ml in PBS flowed at 30 μl/min, 15 min dissociation; regeneration 50 mM NaOH; triplicate
Details: both partners purified

Kd: 4.03 nM
koff: 0.000262 s⁻¹
kon: 65000 M⁻¹ s⁻¹
B1: HuA21 scFv-Fc fusion antibody (humanized anti-ErbB2 antibody HuA21, wild type) (scFv, V domains shown)
VH: QVQLVQSGAEVVKPGASVKISCKASGYSFTGYFINWVKQNPGQRLEWIGHISSSYATSTYNQKFKGKATLTVDTSASTAYMELSSLRSEDTAVYYCVRSGNYEEYAMDYWGQGTLVTVSS
VL: DIVLTQSPDSLAVSLGERVTINCKSSQTLLYSNNQKNYLAWYQQKPGQSPKLLISWAFTRKSGVPDRFSGSGSGTDFTLTISSVQAEDVAVYYCQQYSNYPWTFGAGTKLEIK
notes: the HuA21 scFv gene is deposited in GenBank under KP749832; also called HuA21 (wt); wild-type HuA21; source: Expi293, transfected; conditioned medium (screening ELISA); purified by Protein A and Superdex G200 size-exclusion chromatography (SPR)
